Results on 24 molecules are retold here after patent US20150166606A1 (RA PHARMACEUTICALS, published 2015).

Read-outs that look alike come from different tables or passages of the source. Bridge positions count the residues as written; N and C are the ends. Square brackets hold non-standard residues; d marks the D form. Ends that are not written are not given here. mXylyl = xylyl linker from dibromoxylene joining the two cysteines; NMeW = CN[C@@H](Cc1c[nH]c2ccccc12)C(=O)O; NMeY = CN[C@@H](Cc1ccc(O)cc1)C(=O)O; NMeT = CN[C@H](C(=O)O)[C@@H](C)O; Phg = N[C@H](C(=O)O)c1ccccc1; NMeS = CN[C@@H](CO)C(=O)O; NMeA = CN[C@@H](C)C(=O)O

Holding throughout (test): cell-based or functional assay
For assay [1], the target named is T1, Activated human plasma kallikrein (Enzyme Research Laboratories, HPKa 1303) (human, UniProt P03952 20-638).
T1 sequence (P03952 20-638 limits assumed): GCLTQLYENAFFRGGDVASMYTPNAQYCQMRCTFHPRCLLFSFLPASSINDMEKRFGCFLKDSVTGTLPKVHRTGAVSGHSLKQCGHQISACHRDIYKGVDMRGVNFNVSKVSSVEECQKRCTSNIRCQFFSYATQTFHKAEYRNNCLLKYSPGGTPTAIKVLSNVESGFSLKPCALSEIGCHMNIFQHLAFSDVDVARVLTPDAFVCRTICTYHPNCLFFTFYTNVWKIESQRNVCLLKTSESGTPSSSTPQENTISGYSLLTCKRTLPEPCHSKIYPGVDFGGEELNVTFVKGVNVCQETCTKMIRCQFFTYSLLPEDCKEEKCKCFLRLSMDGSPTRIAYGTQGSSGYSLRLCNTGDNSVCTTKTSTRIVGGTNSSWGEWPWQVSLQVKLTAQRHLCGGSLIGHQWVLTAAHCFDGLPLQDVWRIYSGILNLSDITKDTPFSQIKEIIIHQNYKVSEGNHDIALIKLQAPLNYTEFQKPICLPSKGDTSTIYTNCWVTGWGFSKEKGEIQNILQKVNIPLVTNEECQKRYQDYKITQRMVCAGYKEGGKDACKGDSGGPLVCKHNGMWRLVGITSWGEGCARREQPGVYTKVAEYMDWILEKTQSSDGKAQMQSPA
In assay [2] the target is T1, Activated human plasma kallikrein …. This is another data set of the same source.
The target is the same in assay [3]. This is another data set of the same source.
The target of assay [4] is mouse plasma kallikrein (R&D Systems) (mouse, UniProt P26262 20-638).
Chain of mouse plasma kallikrein (R&D Systems) (P26262 20-638 limits assumed): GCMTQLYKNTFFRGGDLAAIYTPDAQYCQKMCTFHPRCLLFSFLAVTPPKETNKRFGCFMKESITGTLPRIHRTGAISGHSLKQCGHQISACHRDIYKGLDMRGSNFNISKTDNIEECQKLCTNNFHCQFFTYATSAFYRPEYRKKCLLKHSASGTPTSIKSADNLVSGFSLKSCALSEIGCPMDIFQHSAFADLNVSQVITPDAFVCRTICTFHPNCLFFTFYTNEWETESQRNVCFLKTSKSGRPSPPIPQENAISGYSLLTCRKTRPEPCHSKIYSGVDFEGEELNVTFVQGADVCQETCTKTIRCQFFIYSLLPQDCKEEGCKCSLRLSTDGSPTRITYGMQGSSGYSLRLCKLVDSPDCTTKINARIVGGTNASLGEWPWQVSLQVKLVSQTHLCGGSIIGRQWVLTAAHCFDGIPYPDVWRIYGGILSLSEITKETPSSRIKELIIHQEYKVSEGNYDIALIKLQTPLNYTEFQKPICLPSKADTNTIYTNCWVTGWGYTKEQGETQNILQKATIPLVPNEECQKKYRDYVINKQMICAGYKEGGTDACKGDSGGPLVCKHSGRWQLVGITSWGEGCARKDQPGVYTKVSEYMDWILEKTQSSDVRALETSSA
In assay [5] the target is Factor XIa (Enzyme Research Laboratories) (human, UniProt P03951 19-625).
Chain of Factor XIa (Enzyme Research Laboratories) (P03951 19-625 limits assumed): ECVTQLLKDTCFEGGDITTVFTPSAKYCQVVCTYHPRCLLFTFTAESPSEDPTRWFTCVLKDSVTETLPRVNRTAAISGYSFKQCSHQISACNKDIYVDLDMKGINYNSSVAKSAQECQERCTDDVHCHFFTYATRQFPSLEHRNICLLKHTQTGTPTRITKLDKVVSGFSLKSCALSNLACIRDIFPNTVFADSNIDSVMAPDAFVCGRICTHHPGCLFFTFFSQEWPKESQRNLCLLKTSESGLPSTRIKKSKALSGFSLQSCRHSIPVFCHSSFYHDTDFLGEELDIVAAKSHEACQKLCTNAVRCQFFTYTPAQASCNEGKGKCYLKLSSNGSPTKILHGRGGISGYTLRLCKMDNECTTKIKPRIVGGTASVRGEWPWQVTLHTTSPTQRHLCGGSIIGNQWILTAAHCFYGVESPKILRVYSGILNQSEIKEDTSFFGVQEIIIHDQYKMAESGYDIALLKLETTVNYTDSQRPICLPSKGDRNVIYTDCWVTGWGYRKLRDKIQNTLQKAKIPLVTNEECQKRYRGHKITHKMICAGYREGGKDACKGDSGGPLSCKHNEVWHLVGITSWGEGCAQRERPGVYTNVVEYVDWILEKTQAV
The target of assay [6] is T2, tissue kallikrein KLK13 (R&D Systems) (human, UniProt Q9UKR3 17-277, limits assumed).
T2 sequence (looked up): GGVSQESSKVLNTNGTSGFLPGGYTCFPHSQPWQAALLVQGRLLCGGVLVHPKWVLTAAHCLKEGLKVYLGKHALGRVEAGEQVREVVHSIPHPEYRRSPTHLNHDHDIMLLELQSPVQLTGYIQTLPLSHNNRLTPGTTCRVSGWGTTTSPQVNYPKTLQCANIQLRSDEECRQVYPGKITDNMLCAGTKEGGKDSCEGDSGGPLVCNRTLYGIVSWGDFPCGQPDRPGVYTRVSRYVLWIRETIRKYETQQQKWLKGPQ

Assay [7] concerns the target T1, Activated human plasma kallikrein …. The source holds these as a separate data set.

Turning to Ac-CNYWSPWT[NMeA]C-NH2 (cysteine pairing not given here) [R2234], the “Avg. IC50” value in assay [1] is 2.7 nM.
As to MCES[Phg]CRV-NH2 (linker 2-6 via mXylyl) [R2012], the “Avg. IC50” value in assay [2] came out at 8.3 nM. For the same molecule, in assay [3], the “Human Kallikrein IC50” value is 8.3 nM. In addition, in assay [4], the “Mouse Kallikrein IC50” value was found to be 11.3 nM. Further, the “Factor XIa IC50” value in assay [5] was more than 8300 nM. For the same molecule, in assay [6], the “KLK13 IC50” value is more than 100000 nM.
For the molecule Ac-CNYWSP[dW]TAC-NH2 (cysteine pairing not given here) [R2228], the “Avg. IC50” value in assay [1] was more than 10600 nM.
Take Ac-CN[NMeY]WSPWTAC-NH2 (cysteine pairing not given here) [R2239]: in assay [1], the “Avg. IC50” value is more than 12500 nM.
On to Ac-CNYWSPW[NMeT]AC-NH2 (cysteine pairing not given here) [R2235], for which the “Avg. IC50” value in assay [1] was found to be 101 nM.
CNYWSPWTAA (also: Cyclo(1,10): ring between residues 1 and 10, bond kind not given here) [R2222]: the “Avg. IC50” value in assay [1] was determined as 926 nM.
In the case of Ac-CNYW[dS]PWTAC-NH2 (cysteine pairing not given here) [R2230], the “Avg. IC50” value in assay [1] is more than 6580 nM.
Regarding Ac-CNYWSPWTAA-NH2 [R2144], the “Avg. IC50” value in assay [7] came out at 95.5 nM.
As for Ac-CNYWSPWAAC-NH2 (cysteine pairing not given here) [R2146], the “Avg. IC50” value in assay [7] was determined as 17.5 nM.
Take Ac-CNYWSPWT[dA]C-NH2 (cysteine pairing not given here) [R2226]: the “Avg. IC50” value in assay [1] came out at 222 nM.

B1: R2142 (peptide)
peptide: Ac-CNYWSPWTAC-NH2
modifications: disulfide 1-10
SMILES: CC(=O)N[C@H]1CSSC[C@@H](C(N)=O)NC(=O)[C@H](C)NC(=O)[C@H]([C@@H](C)O)NC(=O)[C@H](Cc2c[nH]c3ccccc23)NC(=O)[C@@H]2CCCN2C(=O)[C@H](CO)NC(=O)[C@H](Cc2c[nH]c3ccccc23)NC(=O)[C@H](Cc2ccc(O)cc2)NC(=O)[C@H](CC(N)=O)NC1=O
B1: in assay [7], the “Avg. IC50” value is 2.7 nM.
With Ac-CNYWS[dP]WTAC-NH2 (cysteine pairing not given here) [R2229], the “Avg. IC50” value in assay [1] was more than 14300 nM.
With Ac-CNYWSPW[dT]AC-NH2 (cysteine pairing not given here) [R2227], the “Avg. IC50” value in assay [1] came to 323 nM.
In the case of Ac-CN[NMeY]W[NMeS]PW[NMeT]AC-NH2 (disulfide 1-10) [R2224], in assay [1], the “Avg. IC50” value was more than 100000 nM.
Consider Ac-CNYWSP[NMeW]TAC-NH2 (cysteine pairing not given here) [R2236], for which the “Avg. IC50” value in assay [1] was more than 4900 nM.
With Ac-C[dN]YWSPWTAC-NH2 (cysteine pairing not given here) [R2233], the “Avg. IC50” value in assay [1] was 305 nM.
In the case of Ac-CNYW[NMeS]PWTAC-NH2 (cysteine pairing not given here) [R2237], the “Avg. IC50” value in assay [1] is more than 13900 nM.
As to Ac-CN[dY]WSPWTAC-NH2 (cysteine pairing not given here) [R2232], in assay [1], the “Avg. IC50” value was more than 1950 nM.
On to Ac-CNYWSPWTA[dC]-NH2 (cysteine pairing not given here) [R2225], for which the “Avg. IC50” value in assay [1] was 8.1 nM.
Take Ac-ANYWSPWTAC-NH2 [R2143]: in assay [7], the “Avg. IC50” value came to 48.4 nM.
As to Ac-CNY[dW]SPWTAC-NH2 (cysteine pairing not given here) [R2231], in assay [1], the “Avg. IC50” value was found to be 760 nM.
The same measure, in the same setting: to Ac-CN[NMeY]W[NMeS]PW[NMeT]AC-NH2 (linker 1-10 via mXylyl) [R2223] belongs more than 100000 nM.
For the molecule Ac-ANYWSPWTAA-NH2 [R2145], the “Avg. IC50” value in assay [7] was determined as 58.8 nM.
On to Ac-CNY[NMeW]SPWTAC-NH2 (cysteine pairing not given here) [R2238], for which the “Avg. IC50” value in assay [1] was more than 4520 nM.
